From publication doi:10.1101/2025.06.12.659319, “A bipartite, mutation-tolerant NLS regulates interaction of ΔNp63α with importin alpha, nuclear transport and transcriptional activity” (bioRxiv, 2025) come the findings set out here.

The target of the experiment is mouse IMPα2ΔIBB (importin α2 lacking the IMPβ1 binding domain) (mouse, UniProt P52293 70-529). Briefly: crystal structure; IMPα2ΔIBB crystals (hanging drop, 650 mM sodium citrate, 100 mM HEPES pH 6.5, 10 mM DTT, 23°C) soaked with the peptide; 2.20 Å. Conditions: both partners purified.

Where no end group is shown, it is not given here. The star is where a group is joined. FITC = O=C1OC2(c3ccc(O)cc3Oc3cc(O)ccc32)c2ccc(NC(=S)*)cc21

B1: FITC-ΔNp63α NLSbip peptide (residues 278-302) (peptide)
peptide: {FITC}-DGTKRPFRQNTHGIQMTSIKKRRSP
notes: ΔNp63α (p63), human, residues 278-302, bipartite NLS; numbers count on: the ΔNp63α isoform (Q9H3D4-2); also called p63 NLS; source: synthetic peptide (GenScript)
With B1, the binding result is “binds”.
